Measured values as given in US20180155451A1 (published 2018).

T1: FcγRIIb, extracellular domain with C-terminal His tag (human, UniProt P31994 43-217)
T1 construct: extracellular domain; Expressed in FreeStyle293 cells; analyte in the Biacore assay; also called FcgRIIb; 2b; not shown: His tag at the C terminus
T1 sequence (looked up): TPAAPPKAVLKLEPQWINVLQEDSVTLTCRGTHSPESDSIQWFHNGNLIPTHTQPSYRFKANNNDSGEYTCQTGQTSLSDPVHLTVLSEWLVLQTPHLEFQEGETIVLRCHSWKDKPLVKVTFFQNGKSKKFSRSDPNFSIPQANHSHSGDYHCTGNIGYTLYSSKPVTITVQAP

T2: FcγRIIa H (FcγRIIa type H, His at position 131), extracellular domain with C-terminal His tag (human, UniProt P12318 34-217)
T2 construct: extracellular domain; Expressed in FreeStyle293 cells; analyte in the Biacore assay; also called FcgRIIa H; 2aH; not shown: His tag at the C terminus
T2 sequence (looked up): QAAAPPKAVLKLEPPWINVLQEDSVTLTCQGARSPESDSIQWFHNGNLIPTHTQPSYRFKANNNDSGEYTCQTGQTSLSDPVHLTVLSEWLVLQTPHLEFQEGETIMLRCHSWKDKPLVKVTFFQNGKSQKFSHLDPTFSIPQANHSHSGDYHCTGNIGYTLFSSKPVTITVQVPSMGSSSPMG


Legend:
[1] = target: T1, FcγRIIb, extracellular domain with …; assay: SPR Biacore, captured antibody, FcgR analyte; GpH7-A5/GpH7-B3/GpL16-k0 = 100
[2] = target: T2, FcγRIIa H (FcγRIIa type H, His at …); assay: as above
[3] = target: T2, FcγRIIa H (FcγRIIa type H, His at …); assay: SPR Biacore; He/Con_2aH divided by He/Con_2b (reference: FcgRIIb)

Row | Binder | He/Con_2b [1] | He/Con_2aH [2] | He_2aH/2b (IIaH/IIb) [3]
1 | GpH7-A5/GpH7-B3 variant I332_12R/GpL16-k0 (antibody, human IgG1, kappa, He Ab; IgG1; mutation in one H chain only; also called He Ab) heavy 1: not shown heavy 2: not shown light: DIVMTQSPLSLPVTPGEPASISCQASESLVHSNRNTYLHWYLQKPGQSPQLLIYKVSNRFSGVPDRFSGSGSGTDFTLKISRVEAEDVGVYYCSQNTHVPPTFGQGTKVEIERTVAAPSVFIFPPSDEQLKSGTASVVCLLNNFYPREAKVQWKVDNALQSGNSQESVTEQDSKDSTYSLSSTLTLSKADYEKHKVYACEVTHQGLSSPVTKSFNRGEC | 48.9 % of HeCon Ab | 87.8 % of HeCon Ab | 1.8
2 | GpH7-A5/GpH7-B3 variant P329_07I/GpL16-k0 (antibody, human IgG1, kappa, He Ab; IgG1; mutation in one H chain only; also called He Ab) heavy 1: not shown heavy 2: not shown light: DIVMTQSPLSLPVTPGEPASISCQASESLVHSNRNTYLHWYLQKPGQSPQLLIYKVSNRFSGVPDRFSGSGSGTDFTLKISRVEAEDVGVYYCSQNTHVPPTFGQGTKVEIERTVAAPSVFIFPPSDEQLKSGTASVVCLLNNFYPREAKVQWKVDNALQSGNSQESVTEQDSKDSTYSLSSTLTLSKADYEKHKVYACEVTHQGLSSPVTKSFNRGEC | 34.6 % of HeCon Ab | 53.8 % of HeCon Ab | 1.56
3 | GpH7-A5/GpH7-B3 variant N325_12R/GpL16-k0 (antibody, human IgG1, kappa, He Ab; IgG1; mutation in one H chain only; also called He Ab) heavy 1: not shown heavy 2: not shown light: DIVMTQSPLSLPVTPGEPASISCQASESLVHSNRNTYLHWYLQKPGQSPQLLIYKVSNRFSGVPDRFSGSGSGTDFTLKISRVEAEDVGVYYCSQNTHVPPTFGQGTKVEIERTVAAPSVFIFPPSDEQLKSGTASVVCLLNNFYPREAKVQWKVDNALQSGNSQESVTEQDSKDSTYSLSSTLTLSKADYEKHKVYACEVTHQGLSSPVTKSFNRGEC | 19.1 % of HeCon Ab | 29.9 % of HeCon Ab | 1.56
4 | GpH7-A5/GpH7-B3 variant P329_12R/GpL16-k0 (antibody, human IgG1, kappa, He Ab; IgG1; mutation in one H chain only; also called He Ab) heavy 1: not shown heavy 2: not shown light: DIVMTQSPLSLPVTPGEPASISCQASESLVHSNRNTYLHWYLQKPGQSPQLLIYKVSNRFSGVPDRFSGSGSGTDFTLKISRVEAEDVGVYYCSQNTHVPPTFGQGTKVEIERTVAAPSVFIFPPSDEQLKSGTASVVCLLNNFYPREAKVQWKVDNALQSGNSQESVTEQDSKDSTYSLSSTLTLSKADYEKHKVYACEVTHQGLSSPVTKSFNRGEC | 17.6 % of HeCon Ab | 46.4 % of HeCon Ab | 2.63
5 | GpH7-A5/GpH7-B3 variant I332_18N/GpL16-k0 (antibody, human IgG1, kappa, He Ab; IgG1; mutation in one H chain only; also called He Ab) heavy 1: not shown heavy 2: not shown light: DIVMTQSPLSLPVTPGEPASISCQASESLVHSNRNTYLHWYLQKPGQSPQLLIYKVSNRFSGVPDRFSGSGSGTDFTLKISRVEAEDVGVYYCSQNTHVPPTFGQGTKVEIERTVAAPSVFIFPPSDEQLKSGTASVVCLLNNFYPREAKVQWKVDNALQSGNSQESVTEQDSKDSTYSLSSTLTLSKADYEKHKVYACEVTHQGLSSPVTKSFNRGEC | 89.9 % of HeCon Ab | 110 % of HeCon Ab | 1.22
6 | GpH7-A5/GpH7-B3 variant P329_03V/GpL16-k0 (antibody, human IgG1, kappa, He Ab; IgG1; mutation in one H chain only; also called He Ab) heavy 1: not shown heavy 2: not shown light: DIVMTQSPLSLPVTPGEPASISCQASESLVHSNRNTYLHWYLQKPGQSPQLLIYKVSNRFSGVPDRFSGSGSGTDFTLKISRVEAEDVGVYYCSQNTHVPPTFGQGTKVEIERTVAAPSVFIFPPSDEQLKSGTASVVCLLNNFYPREAKVQWKVDNALQSGNSQESVTEQDSKDSTYSLSSTLTLSKADYEKHKVYACEVTHQGLSSPVTKSFNRGEC | 38.5 % of HeCon Ab | 60.4 % of HeCon Ab | 1.57
7 | GpH7-A5/GpH7-B3 variant P329_06M/GpL16-k0 (antibody, human IgG1, kappa, He Ab; IgG1; mutation in one H chain only; also called He Ab) heavy 1: not shown heavy 2: not shown light: DIVMTQSPLSLPVTPGEPASISCQASESLVHSNRNTYLHWYLQKPGQSPQLLIYKVSNRFSGVPDRFSGSGSGTDFTLKISRVEAEDVGVYYCSQNTHVPPTFGQGTKVEIERTVAAPSVFIFPPSDEQLKSGTASVVCLLNNFYPREAKVQWKVDNALQSGNSQESVTEQDSKDSTYSLSSTLTLSKADYEKHKVYACEVTHQGLSSPVTKSFNRGEC | 29.1 % of HeCon Ab | 43.7 % of HeCon Ab | 1.5
8 | GpH7-A5/GpH7-B3 variant P329_08L/GpL16-k0 (antibody, human IgG1, kappa, He Ab; IgG1; mutation in one H chain only; also called He Ab) heavy 1: not shown heavy 2: not shown light: DIVMTQSPLSLPVTPGEPASISCQASESLVHSNRNTYLHWYLQKPGQSPQLLIYKVSNRFSGVPDRFSGSGSGTDFTLKISRVEAEDVGVYYCSQNTHVPPTFGQGTKVEIERTVAAPSVFIFPPSDEQLKSGTASVVCLLNNFYPREAKVQWKVDNALQSGNSQESVTEQDSKDSTYSLSSTLTLSKADYEKHKVYACEVTHQGLSSPVTKSFNRGEC | 29.1 % of HeCon Ab | 45.4 % of HeCon Ab | 1.56
9 | GpH7-A5/GpH7-B3 variant I336_20W/GpL16-k0 (antibody, human IgG1, kappa, He Ab; IgG1; mutation in one H chain only; also called He Ab) heavy 1: not shown heavy 2: not shown light: DIVMTQSPLSLPVTPGEPASISCQASESLVHSNRNTYLHWYLQKPGQSPQLLIYKVSNRFSGVPDRFSGSGSGTDFTLKISRVEAEDVGVYYCSQNTHVPPTFGQGTKVEIERTVAAPSVFIFPPSDEQLKSGTASVVCLLNNFYPREAKVQWKVDNALQSGNSQESVTEQDSKDSTYSLSSTLTLSKADYEKHKVYACEVTHQGLSSPVTKSFNRGEC | 20.3 % of HeCon Ab | 30.9 % of HeCon Ab | 1.52
10 | GpH7-A5/GpH7-B3 variant P329_11K/GpL16-k0 (antibody, human IgG1, kappa, He Ab; IgG1; mutation in one H chain only; also called He Ab) heavy 1: not shown heavy 2: not shown light: DIVMTQSPLSLPVTPGEPASISCQASESLVHSNRNTYLHWYLQKPGQSPQLLIYKVSNRFSGVPDRFSGSGSGTDFTLKISRVEAEDVGVYYCSQNTHVPPTFGQGTKVEIERTVAAPSVFIFPPSDEQLKSGTASVVCLLNNFYPREAKVQWKVDNALQSGNSQESVTEQDSKDSTYSLSSTLTLSKADYEKHKVYACEVTHQGLSSPVTKSFNRGEC | 16.9 % of HeCon Ab | 46.2 % of HeCon Ab | 2.74
11 | GpH7-A5/GpH7-B3 variant N325_11K/GpL16-k0 (antibody, human IgG1, kappa, He Ab; IgG1; mutation in one H chain only; also called He Ab) heavy 1: not shown heavy 2: not shown light: DIVMTQSPLSLPVTPGEPASISCQASESLVHSNRNTYLHWYLQKPGQSPQLLIYKVSNRFSGVPDRFSGSGSGTDFTLKISRVEAEDVGVYYCSQNTHVPPTFGQGTKVEIERTVAAPSVFIFPPSDEQLKSGTASVVCLLNNFYPREAKVQWKVDNALQSGNSQESVTEQDSKDSTYSLSSTLTLSKADYEKHKVYACEVTHQGLSSPVTKSFNRGEC | 10.4 % of HeCon Ab | 16.1 % of HeCon Ab | 1.55
12 | GpH7-A5/GpH7-B3 variant P329_04F/GpL16-k0 (antibody, human IgG1, kappa, He Ab; IgG1; mutation in one H chain only; also called He Ab) heavy 1: not shown heavy 2: not shown light: DIVMTQSPLSLPVTPGEPASISCQASESLVHSNRNTYLHWYLQKPGQSPQLLIYKVSNRFSGVPDRFSGSGSGTDFTLKISRVEAEDVGVYYCSQNTHVPPTFGQGTKVEIERTVAAPSVFIFPPSDEQLKSGTASVVCLLNNFYPREAKVQWKVDNALQSGNSQESVTEQDSKDSTYSLSSTLTLSKADYEKHKVYACEVTHQGLSSPVTKSFNRGEC | 32.2 % of HeCon Ab | 44.5 % of HeCon Ab | 1.38
13 | GpH7-A5/GpH7-B3 variant P329_02A/GpL16-k0 (antibody, human IgG1, kappa, He Ab; IgG1; mutation in one H chain only; also called He Ab) heavy 1: not shown heavy 2: not shown light: DIVMTQSPLSLPVTPGEPASISCQASESLVHSNRNTYLHWYLQKPGQSPQLLIYKVSNRFSGVPDRFSGSGSGTDFTLKISRVEAEDVGVYYCSQNTHVPPTFGQGTKVEIERTVAAPSVFIFPPSDEQLKSGTASVVCLLNNFYPREAKVQWKVDNALQSGNSQESVTEQDSKDSTYSLSSTLTLSKADYEKHKVYACEVTHQGLSSPVTKSFNRGEC | 40.5 % of HeCon Ab | 65.7 % of HeCon Ab | 1.62
14 | GpH7-A5/GpH7-B3 variant I336_19Q/GpL16-k0 (antibody, human IgG1, kappa, He Ab; IgG1; mutation in one H chain only; also called He Ab) heavy 1: not shown heavy 2: not shown light: DIVMTQSPLSLPVTPGEPASISCQASESLVHSNRNTYLHWYLQKPGQSPQLLIYKVSNRFSGVPDRFSGSGSGTDFTLKISRVEAEDVGVYYCSQNTHVPPTFGQGTKVEIERTVAAPSVFIFPPSDEQLKSGTASVVCLLNNFYPREAKVQWKVDNALQSGNSQESVTEQDSKDSTYSLSSTLTLSKADYEKHKVYACEVTHQGLSSPVTKSFNRGEC | 58.2 % of HeCon Ab | 73.7 % of HeCon Ab | 1.27
